From patent US20220323607A1, “SYNTHETIC NANOCARRIERS COMPRISING AN IMMUNOSUPPRESSANT IN COMBINATION WITH HIGH AFFINITY IL-2 RECEPTOR AGONISTS TO ENHANCE IMMUNE TOLERANCE” (Selecta Biosciences, Inc., priority 2021, published 2022)

System: Ovalbumin-specific OTII T cells
Test: Adoptive transfer of ovalbumin-specific OTII T cells, Foxp3 expression (Example 5)
Assay type: in vivo
Details: mice with adoptively transferred OTII T cells; starting from ~3%
Protocol: However, expansion of antigen-specific Treg can be more desirable than expansion of total Treg. The ability of ImmTOR plus antigen combined with IL-2 mutein to induce and/or expand antigen-specific Treg was evaluated. Ovalbumin-specific OTII T cells were adoptively transferred into mice prior to treatment with ovalbumin and ImmTOR and/or IL-2 mutein.

B1: ovalbumin (protein, UniProt P01012 2-386, looked up)
Ovalbumin: GSIGAASMEFCFDVFKELKVHHANENIFYCPIAIMSALAMVYLGAKDSTRTQINKVVRFDKLPGFGDSIEAQCGTSVNVHSSLRDILNQITKPNDVYSFSLASRLYAEERYPILPEYLQCVKELYRGGLEPINFQTAADQARELINSWVESQTNGIIRNVLQPSSVDSQTAMVLVNAIVFKGLWEKAFKDEDTQAMPFRVTEQESKPVQMMYQIGLFRVASMASEKMKILELPFASGTMSMLVLLPDEVSGLEQLESIINFEKLTEWTSSNVMEERKIKVYLPRMKMEEKYNLTSVLMAMGITDVFSSSANLSGISSAESLKISQAVHAAHAEINEAGREVVGSAEAGVDAASVSEEFRADHPFLFCIKHIATNAVLFFGRCVSP
percentage of Foxp3+ OTII cells: ~6%
